Reference: PMC3376909 (Molecular Microbiology, 2012)

T1: MinD-N45A (purified) (E. coli, UniProt P0AEZ3 1-270, N45A)
T1 sequence (looked up): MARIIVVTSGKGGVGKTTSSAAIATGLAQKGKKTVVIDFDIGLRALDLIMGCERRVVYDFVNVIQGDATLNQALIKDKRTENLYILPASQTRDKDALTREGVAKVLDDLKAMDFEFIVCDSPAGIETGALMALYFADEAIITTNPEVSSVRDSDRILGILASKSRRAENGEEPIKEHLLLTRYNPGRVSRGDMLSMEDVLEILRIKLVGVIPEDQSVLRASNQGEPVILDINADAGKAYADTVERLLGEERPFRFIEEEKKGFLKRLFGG


Target: T1, MinD-N45A (purified)
Test: co-sedimentation

binding result	Binder
binds	MinE-his (purified) (natural protein, E. coli, UniProt P0A734 1-88, looked up) MALLDFFLSRKKNTANIAKERLQIIVAERRRSDAEPHYLPQLRKDILEVICKYVQIDPEMVTVQLEQKDGDISILELNVTLPEAEELK
binds	MalE-MinC (natural protein, E. coli, UniProt P18196 1-231, looked up) MSNTPIELKGSSFTLSVVHLHEAEPKVIHQALEDKIAQAPAFLKHAPVVLNVSALEDPVNWSAMHKAVSATGLRVIGVSGCKDAQLKAEIEKMGLPILTEGKEKAPRPAPTPQAPAQNTTPVTKTRLIDTPVRSGQRIYAPQCDLIVTSHVSAGAELIADGNIHVYGMMRGRALAGASGDRETQIFCTNLMAELVSIAGEYWLSDQIPAEFYGKAARLQLVENALTVQPLN
